Target: the molecule itself
Experiment: SEC; 63.8 uM NS or gNS in 10 mM Tris-HCl pH 8.0, 50 mM KCl, incubated at 45 °C; aliquots at different times run on a Superdex 200 Increase 10/300 GL column; heat-induced polymerisation

B1: bacterially expressed human neuroserpin (non-glycosylated) (natural protein, UniProt Q99574 17-410, looked up)
chain: TGATFPEEAIADLSVNMYNRLRATGEDENILFSPLSIALAMGMMELGAQGSTQKEIRHSMGYDSLKNGEEFSFLKEFSNMVTAKESQYVMKIANSLFVQNGFHVNEEFLQMMKKYFNAAVNHVDFSQNVAVANYINKWVENNTNNLVKDLVSPRDFDAATYLALINAVYFKGNWKSQFRPENTRTFSFTKDDESEVQIPMMYQQGEFYYGEFSDGSNEAGGIYQVLEIPYEGDEISMMLVLSRQEVPLATLEPLVKAQLVEEWANSVKKQKVEVYLPRFTVEQEIDLKDVLKALGITEIFIKDANLTGLSDNKEIFLSKAIHKSFLEVNEEGSEAAAVSGMIAISRMAVLYPQVIVDHPFFFLIRNRRTGTILFMGRVMHPETMNTSGHDFEEL
notes: human neuroserpin (NS), wild type, from the pQE81L plasmid carrying the human NS gene; theoretical mass of the construct 46,271 Da; Samples were a mix of native NS and NS cleaved at Arg362; also called NS; bacterially purified NS; source: E. coli BL21 Rosetta (DE3) pLysS, purified (HiTrap Chelating HP, Superdex200 gel filtration)
B1: binds.

From PMC7247563, “Glycosylation Tunes Neuroserpin Physiological and Pathological Properties” (International Journal of Molecular Sciences, 2020)
